The record followed here is PMC10524338 (Structure (London, England : 1993), 2023).

For orientation: Kd means the equilibrium constant for the complex coming apart. A lower Kd goes with a tighter complex.

Where a chain is given by its changes, count along the chain named. In names and notes the source's numbering stands.

Sequences and labels used below:
B1: MBP-HNRNPH2(103-225) P213A (domain or fragment, UniProt P55795 103-225, looked up)
chain: NSPDTANDGFVRLRGLPFGCSKEEIVQFFSGLEIVPNGMTLPVDFQGRSTGEAFVQFASQEIAEKALKKHKERIGHRYIEIFKSSRAEVRTHYDPPRKLMAMQRPGPYDRAGAGRGYNSIGRG
B2: MBP-HNRNPH2(103-225) R212K (domain or fragment, UniProt P55795 103-225, looked up)
chain: B1 chain with R110K, A111P
B3: HNRNPH2(103-225) as in the cryo-EM sample (domain or fragment, UniProt P55795 103-225, looked up)
chain: B1 chain with A111P
modifications: mildly cross-linked to Kapβ2 with 0.025% glutaraldehyde
B4: MBP-HNRNPH2(103-225) WT (domain or fragment, UniProt P55795 103-225, looked up)
chain: B1 chain with A111P
B5: MBP-HNRNPH2(103-225) R206W (domain or fragment, UniProt P55795 103-225, looked up)
chain: B1 chain with R104W, A111P
B6: MBP-HNRNPH2(103-225) P209L (domain or fragment, UniProt P55795 103-225, looked up)
chain: B1 chain with P107L, A111P
B7: MBP-HNRNPH2(103-225) R206Q (domain or fragment, UniProt P55795 103-225, looked up)
chain: B1 chain with R104Q, A111P
B8: MBP-HNRNPH2(103-225) R212A (domain or fragment, UniProt P55795 103-225, looked up)
chain: B1 chain with R110A, A111P

One test addresses T1, GST-Kapβ2 (UniProt Q92973-2 1-890).
T1 sequence (looked up): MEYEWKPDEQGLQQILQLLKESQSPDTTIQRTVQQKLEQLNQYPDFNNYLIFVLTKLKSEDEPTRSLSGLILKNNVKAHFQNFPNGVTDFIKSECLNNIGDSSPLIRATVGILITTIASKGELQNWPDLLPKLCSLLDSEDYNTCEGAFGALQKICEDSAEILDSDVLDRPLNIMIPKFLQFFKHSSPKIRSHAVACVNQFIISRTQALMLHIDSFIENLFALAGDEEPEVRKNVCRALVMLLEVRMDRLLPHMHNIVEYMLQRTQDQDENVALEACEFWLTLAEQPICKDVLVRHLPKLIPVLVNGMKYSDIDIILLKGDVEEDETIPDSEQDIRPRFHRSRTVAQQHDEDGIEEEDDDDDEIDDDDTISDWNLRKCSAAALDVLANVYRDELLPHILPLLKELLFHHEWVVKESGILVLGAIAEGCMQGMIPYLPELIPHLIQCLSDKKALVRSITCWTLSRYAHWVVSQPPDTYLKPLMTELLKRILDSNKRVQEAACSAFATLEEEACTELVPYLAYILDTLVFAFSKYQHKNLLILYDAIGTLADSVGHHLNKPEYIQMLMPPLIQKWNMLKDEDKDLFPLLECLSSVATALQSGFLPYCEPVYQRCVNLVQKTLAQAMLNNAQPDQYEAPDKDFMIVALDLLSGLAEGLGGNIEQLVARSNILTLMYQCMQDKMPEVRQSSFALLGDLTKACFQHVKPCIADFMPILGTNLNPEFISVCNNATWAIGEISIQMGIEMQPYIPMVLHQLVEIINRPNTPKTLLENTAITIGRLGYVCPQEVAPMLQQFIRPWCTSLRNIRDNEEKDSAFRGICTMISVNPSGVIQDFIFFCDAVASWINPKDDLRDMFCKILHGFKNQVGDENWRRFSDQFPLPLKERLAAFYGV
Description: pull-down.
For B1, the binding result is “binds”. With B2, the binding result is given as “binds”.

For another test, the target named is T2, Karyopherin-β2 (Kapβ2), wild type, GST tag removed (UniProt Q92973-2 1-890).
T2 sequence (looked up): T1 sequence (looked up)
The experiment in a line: cryo-EM structure.
With B3, the binding result is on record as “binds”.

For the next test, the target named is T2, Karyopherin-β2 (Kapβ2), wild type, GST …. The experiment in a line: ITC.
For the molecule ERPAQNEKRKEKNIKRGGNRFEPYANPTKR (domain or fragment, UniProt P52272 41-70, looked up) [MBP-HNRNPM PY-NLS (41-70)], binding was characterised by a dissociation constant (Kd) of 0.009 µM. That is a single-digit nanomolar value.

Molecule EVRTHYDPPRKLMAMQRPGPYDRPGAGRGYNSIGRG (domain or fragment, UniProt P55795 190-225, looked up) [MBP-HNRNPH2 PY-NLS (190-225)] showed a Kd of 0.04 µM. For B4, binding was characterised by a dissociation constant (Kd) of 0.05 µM. Regarding B5, the Kd was 5.2 µM. Still for that read-out and setting: with B6 the figure was 16.3 µM. B7: the Kd was 3.6 µM. Same read-out and setting: with B8 the figure was 3.2 µM.

Another test deals with T3, Kapβ2(W373A), GST tag removed (UniProt Q92973-2 1-890, W373A).
T3 sequence (looked up): T1 sequence (looked up) with W373A
Description: ITC. In general terms: Isothermal titration calorimetry measures the heat released or taken up as one component is titrated into another.
ERPAQNEKRKEKNIKRGGNRFEPYANPTKR (domain or fragment, UniProt P52272 41-70, looked up) [MBP-HNRNPM PY-NLS (41-70)] registered a Kd of 0.0045 µM. The same measure, in the same setting: in the case of B4 it was 6.1 µM.
